Values joined by “and” are separate entries in the source; they are usually repeats but may differ in a detail not shown here. Identical values can stand only once.
B1: full-length NC1 domain of murine collagen XVIII (domain or fragment)
chain: AGQVRIWATYQTMLDKIREVPEGWLIFVAEREELYVRVRNGFRKVLLEARTALPRGTGNEVAALQPPLVQLHEGSPYTRREYSYSTARPWRADDILANPPRLPDRQPYPGVPHHHSSYVHLPPARPTLSLAHTHQDFQPVLHLVALNTPLSGGMRGIRGADFQCFQQARAVGLSGTFRAFLSSRLQDLYSIVRRADRGSVPIVNLKDEVLSPSWDSLFSGSQGQLQPGARIFSFDGRDVLRHPAWPQKSVWHGSDPSGRRLMESYCETWRTETTGATGQASSLLSGRLLEQKAASCHNSYIVLCIENSFMTSFSK
B2: full-length NC1 domain of murine collagen XV (domain or fragment)
chain: NLVTALSDMGDMLQKAHLVIEGTFIYLRDSGEFFIRVRDGWKKLQLGELIPIPADSPPPPALSSNPYQPQPPLNPILSANYERPVLHLVALNTPVAGDIRADFQCFQQARAAGLLSTFRAFLSSHLQDLSTVVRKAERFGLPIVNLKGQVLFNNWDSIFSGDGGQFNTHIPIYSFDGRDVMTDPSWPQKVVWHGSNPHGVRLVDKYCEAWRTTDMAVTGFASPLSTGKILDQKAYSCANRLIVLCIENSFMTDTRK
B3: NC1(54) peptide of human collagen XVIII (domain or fragment)
chain: GSSGVRLWATRQAMLGQVHEVPEGWLIFVAEQEELYVRVQNGFRKVQLEARTPLPR

Assays:
[1] = molecular target: the molecule itself; assay: AUC
[2] = molecular target: the molecule itself; assay: GdmCl-induced equilibrium unfolding-refolding monitored by CD

Row | Protein | stoichiometry N [1] | Keq ([U]^3/[N], native trimer to unfolded monomers, in water) [2] [mol^2]
1 | B1 | 2.56 | 
2 | B2 | 3.11 and 3.6 | 
3 | B3 |  | 2.4e-21

Source: paper PMC3048824 (Journal of molecular biology, 2009)
